# According to IntAct's records for PubMed 22056771:
# B1: Autophagy-related protein 8 (Saccharomyces cerevisiae), P38182 (parent)
# chain: MKSTFKSEYPFEKRKAESERIADRFKNRIPVICEKAEKSDIPEIDKRKYLVPADLTVGQFVYVIRKRIMLPPEKAIFIFVNDTLPPTAALMSAIYQEHKDKDGFLYVTYSGENTFGR
# partner: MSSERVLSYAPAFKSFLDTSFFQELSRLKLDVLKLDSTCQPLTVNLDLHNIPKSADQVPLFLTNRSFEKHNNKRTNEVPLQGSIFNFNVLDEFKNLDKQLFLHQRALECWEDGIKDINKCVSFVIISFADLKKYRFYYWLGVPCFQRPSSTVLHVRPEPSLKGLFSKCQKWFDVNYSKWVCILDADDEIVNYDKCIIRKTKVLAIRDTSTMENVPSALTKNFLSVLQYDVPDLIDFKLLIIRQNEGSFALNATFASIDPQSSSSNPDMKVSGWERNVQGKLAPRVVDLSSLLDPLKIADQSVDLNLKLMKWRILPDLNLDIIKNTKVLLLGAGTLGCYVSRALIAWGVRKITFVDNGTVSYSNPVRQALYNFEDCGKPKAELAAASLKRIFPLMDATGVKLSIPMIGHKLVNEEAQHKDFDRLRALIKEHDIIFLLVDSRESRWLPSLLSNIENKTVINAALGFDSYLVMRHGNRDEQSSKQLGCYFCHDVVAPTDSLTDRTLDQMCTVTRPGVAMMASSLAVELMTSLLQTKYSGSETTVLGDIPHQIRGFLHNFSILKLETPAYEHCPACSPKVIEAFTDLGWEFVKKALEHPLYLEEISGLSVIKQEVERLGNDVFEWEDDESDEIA
# B2: Autophagy-related protein 8 (Saccharomyces cerevisiae), P38182 (parent)
# chain: B1 chain
# partner: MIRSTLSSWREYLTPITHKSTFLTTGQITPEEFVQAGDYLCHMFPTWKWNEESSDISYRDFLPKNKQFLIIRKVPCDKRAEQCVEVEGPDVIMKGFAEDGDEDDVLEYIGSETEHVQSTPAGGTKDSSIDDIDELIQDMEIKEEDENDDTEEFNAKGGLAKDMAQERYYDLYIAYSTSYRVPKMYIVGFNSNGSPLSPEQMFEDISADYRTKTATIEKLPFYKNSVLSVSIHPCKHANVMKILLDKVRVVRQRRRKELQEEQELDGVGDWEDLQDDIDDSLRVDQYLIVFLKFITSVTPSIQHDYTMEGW
# B3: Ubiquitin-like modifier-activating enzyme ATG7 (Saccharomyces cerevisiae), P38862 (parent)
# chain: B1 partner
# partner: B1 chain
# Variants of: B1
# Details: with atg7_yeast ATG7, P38862
row,Variant,effect of a mutation on the interaction
1,MKSTFKSEYPFEKRKAESERIADRFKNRIPVICEKAEKSDIPEIDKRKYLVPADLTVGQFVKVIRKRIMLPPEKAIFIFVNDTLPPTAALMSAIYQEHKDKDGFLYVTYSGENTFGR [Y62K],disrupting interaction

# Variants of: B1
# Details: with atg7_yeast ATG7, P38862
# Remark: another data set of the same source
row,Variant,effect of a mutation on the interaction
1,MKSTFKSEYPFEKRKAESERIADRFKNRIPVICEKAEKSDIPEIDKRKYLVPADLTVGQFVKVIRKRIMLPPEKAIFIFVNDTLPPTAALMSAIYQEHKDKDGFLYVTYSGENTFGR [Y62K],disrupting interaction strength
2,MKSTFKSEYPFEKRKAESERIADRFKNRIPVICEKAEKSDIPEIDKRKYLVPADLTVGQFVAVIRARIMLPPEKAIFIFVNDTLPPTAALMSAIYQEHKDKDGFLYVTYSGENTFGR [Y62A;K66A],disrupting interaction
3,MKSTFKSEYPFEKRKAESERIADRFKNRIPVICEKAEKSDIPEIDKRKYLVPADLTVGQFVYVIRARIMLPPEKAIFIFVNDTLPPTAALMSAIYQEHKDKDGFLYVTYSGENTFGR [K66A],decreasing interaction strength
4,MKSTFKSEYPFEKRKAESERIADRFKNRIPVICEKAEKSDIPEIDKRKYLVPADLTVGQFVAVIRKRIMLPPEKAIFIFVNDTLPPTAALMSAIYQEHKDKDGFLYVTYSGENTFGR [Y62A],disrupting interaction strength
5,MKSTFKSEYPFEKRKAESERIADRFKNRIPVICEKAEKSDIPEIDKRKYLVPADLTVGQFVYVIRERIMLPPEKAIFIFVNDTLPPTAALMSAIYQEHKDKDGFLYVTYSGENTFGR [K66E],decreasing interaction strength

# Variants of: B2
# Details: with atg3_yeast ATG3, P40344
row,Variant,effect of a mutation on the interaction
1,MKSTFKSEYPFEKRKAESERIADRFKNRIPVICEKAEKSDIPEIDKRKYLVPADLTVGQFVKVIRKRIMLPPEKAIFIFVNDTLPPTAALMSAIYQEHKDKDGFLYVTYSGENTFGR [Y62K],disrupting interaction

# Variants of: B3
# Details: with atg8_yeast ATG8, P38182
row,Variant,effect of a mutation on the interaction
1,E612A,decreasing interaction strength
2,E612Q,decreasing interaction strength
3,E612R,decreasing interaction strength
